First the molecules themselves.
B1: EGFP–ARS2 wt [human] / NCBP3 (endogenous) [human (endogenous in HEK 293T/17)] (parent complex)
chain 1: MGDSDDEYDRRRRDKFRRERSDYDRSRERDERRRGDDWNDREWDRGRERRSRGEYRDYDRNRRERFSPPRHELSPPQKRMRRDWDEHSSDPYHSGYEMPYAGGGGGPTYGPPQPWGHPDVHIMQHHVLPIQARLGSIAEIDLGVPPPVMKTFKEFLLSLDDSVDETEAVKRYNDYKLDFRRQQMQDFFLAHKDEEWFRSKYHPDEVGKRRQEARGALQNRLRVFLSLMETGWFDNLLLDIDKADAIVKMLDAAVIKMEGGTENDLRILEQEEEEEQAGKPGEPSKKEEGRAGAGLGDGERKTNDKDEKKEDGKQAENDSSNDDKTKKSEGDGDKEEKKEDSEKEAKKSSKKRNRKHSGDDSFDEGSVSESESESESGQAEEEKEEAEALKEKEKPKEEEWEKPKDAAGLECKPRPLHKTCSLFMRNIAPNISRAEIISLCKRYPGFMRVALSEPQPERRFFRRGWVTFDRSVNIKEICWNLQNIRLRECELSPGVNRDLTRRVRNINGITQHKQIVRNDIKLAAKLIHTLDDRTQLWASEPGTPPLPTSLPSQNPILKNITDYLIEEVSAEEEELLGSSGGAPPEEPPKEGNPAEINVERDEKLIKVLDKLLLYLRIVHSLDYYNTCEYPNEDEMPNRCGIIHVRGPMPPNRISHGEVLEWQKTFEEKLTPLLSVRESLSEEEAQKMGRKDPEQEVEKFVTSNTQELGKDKWLCPLSGKKFKGPEFVRKHIFNKHAEKIEEVKKEVAFFNNFLTDAKRPALPEIKPAQPPGPAQSLTPGLPYPHQTPQGLMPYGQPRPPILGYGAGAVRPAVPTGGPPYPHAPYGAGRGNYDAFRGQGGYPGKPRNRMVRGDPRAIVEYRDLDAPDDVDFF
chain 2: MAAVRGLRVSVKAEAPAGPALGLPSPEAESGVDRGEPEPMEVEEGELEIVPVRRSLKELIPDTSRRYENKAGSFITGIDVTSKEAIEKKEQRAKRFHFRSEVNLAQRNVALDRDMMKKAIPKVRLETIYICGVDEMSTQDVFSYFKEYPPAHIEWLDDTSCNVVWLDEMTATRALINMSSLPAQDKIRSRDASEDKSAEKRKKDKQEDSSDDDEAEEGEVEDENSSDVELDTLSQVEEESLLRNDLRPANKLAKGNRLFMRFATKDDKKELGAARRSQYYMKYGNPNYGGMKGILSNSWKRRYHSRRIQRDVIKKRALIGDDVGLTSYKHRHSGLVNVPEEPIEEEEEEEEEEEEEEEEDQDMDADDRVVVEYHEELPALKQPRERSASRRSSASSSDSDEMDYDLELKMISTPSPKKSMKMTMYADEVESQLKNIRNSMRADSVSSSNIKNRIGNKLPPEKFADVRHLLDEKRQHSRPRPPVSSTKSDIRQRLGKRPHSPEKAFSSNPVVRREPSSDVHSRLGVPRQDSKGLYADTREKKSGNLWTRLGSAPKTKEKNTKKVDHRAPGAEEDDSELQRAWGALIKEKEQSRQKKSRLDNLPSLQIEVSRESSSGSEAES
B2: EGFP–ARS2 wt [human] / ZCCHC8 [human (endogenous in HEK 293T/17)] (parent complex)
chain 1: B1 chain 1
chain 2: MAAEVYFGDLELFEPFDHPEESIPKPVHTRFKDDDGDEEDENGVGDAELRERLRQCEETIEQLRAENQELKRKLNILTRPSGILVNDTKLDGPILQILFMNNAISKQYHQEIEEFVSNLVKRFEEQQKNDVEKTSFNLLPQPSSIVLEEDHKVEESCAIKNNKEAFSVVGSVLYFTNFCLDKLGQPLLNENPQLSEGWEIPKYHQVFSHIVSLEGQEIQVKAKRPKPHCFNCGSEEHQMKDCPMPRNAARISEKRKEYMDACGEANNQNFQQRYHAEEVEERFGRFKPGVISEELQDALGVTDKSLPPFIYRMRQLGYPPGWLKEAELENSGLALYDGKDGTDGETEVGEIQQNKSVTYDLSKLVNYPGFNISTPRGIPDEWRIFGSIPMQACQQKDVFANYLTSNFQAPGVKSGNKRSSSHSSPGSPKKQKNESNSAGSPADMELDSDMEVPHGSQSSESFQFQPPLPPDTPPLPRGTPPPVFTPPLPKGTPPLTPSDSPQTRTASGAVDEDALTLEELEEQQRRIWAALEQAESVNSDSDVPVDTPLTGNSVASSPCPNELDLPVPEGKTSEKQTLDEPEVPEIFTKKSEAGHASSPDSEVTSLCQKEKAELAPVNTEGALLDNGSVVPNCDISNGGSQKLFPADTSPSTATKIHSPIPDMSKFATGITPFEFENMAESTGMYLRIRSLLKNSPRNQQKNKKASE
B3: EGFP–ARS2 wt [human] / hMTR4 [human (endogenous in HEK 293T/17)] (parent complex)
chain 1: B1 chain 1
chain 2: MADAFGDELFSVFEGDSTTAAGTKKDKEKDKGKWKGPPGSADKAGKRFDGKLQSESTNNGKNKRDVDFEGTDEPIFGKKPRIEESITEDLSLADLMPRVKVQSVETVEGCTHEVALPAEEDYLPLKPRVGKAAKEYPFILDAFQREAIQCVDNNQSVLVSAHTSAGKTVCAEYAIALALREKQRVIFTSPIKALSNQKYREMYEEFQDVGLMTGDVTINPTASCLVMTTEILRSMLYRGSEVMREVAWVIFDEIHYMRDSERGVVWEETIILLPDNVHYVFLSATIPNARQFAEWICHLHKQPCHVIYTDYRPTPLQHYIFPAGGDGLHLVVDENGDFREDNFNTAMQVLRDAGDLAKGDQKGRKGGTKGPSNVFKIVKMIMERNFQPVIIFSFSKKDCEAYALQMTKLDFNTDEEKKMVEEVFSNAIDCLSDEDKKLPQVEHVLPLLKRGIGIHHGGLLPILKETIEILFSEGLIKALFATETFAMGINMPARTVLFTNARKFDGKDFRWISSGEYIQMSGRAGRRGMDDRGIVILMVDEKMSPTIGKQLLKGSADPLNSAFHLTYNMVLNLLRVEEINPEYMLEKSFYQFQHYRAIPGVVEKVKNSEEQYNKIVIPNEESVVIYYKIRQQLAKLGKEIEEYIHKPKYCLPFLQPGRLVKVKNEGDDFGWGVVVNFSKKSNVKPNSGELDPLYVVEVLLRCSKESLKNSATEAAKPAKPDEKGEMQVVPVLVHLLSAISSVRLYIPKDLRPVDNRQSVLKSIQEVQKRFPDGIPLLDPIDDMGIQDQGLKKVIQKVEAFEHRMYSHPLHNDPNLETVYTLCEKKAQIAIDIKSAKRELKKARTVLQMDELKCRKRVLRRLGFATSSDVIEMKGRVACEISSADELLLTEMMFNGLFNDLSAEQATALLSCFVFQENSSEMPKLTEQLAGPLRQMQECAKRIAKVSAEAKLEIDEETYLSSFKPHLMDVVYTWATGATFAHICKMTDVFEGSIIRCMRRLEELLRQMCQAAKAIGNTELENKFAEGITKIKRDIVFAASLYL
B4: EGFP–ARS2 wt [human] / RBM7 [human (endogenous in HEK 293T/17)] (parent complex)
chain 1: B1 chain 1
chain 2: MGAAAAEADRTLFVGNLETKVTEELLFELFHQAGPVIKVKIPKDKDGKPKQFAFVNFKHEVSVPYAMNLLNGIKLYGRPIKIQFRSGSSHAPQDVSLSYPQHHVGNSSPTSTSPSRYERTMDNMTSSAQIIQRSFSSPENFQRQAVMNSALRQMSYGGKFGSSPLDQSGFSPSVQSHSHSFNQSSSSQWRQGTPSSQRKVRMNSYPYLADRHYSREQRYTDHGSDHHYRGKRDDFFYEDRNHDDWSHDYDNRRDSSRDGKWRSSRH
B5: EGFP–ARS2 wt [human] / ZFC3H1 [human (endogenous in HEK 293T/17)] (parent complex)
chain 1: B1 chain 1
chain 2: MATADTPAPASSGLSPKEEGELEDGEISDDDNNSQIRSRSSSSSSGGGLLPYPRRRPPHSARGGGSGGGGGSSSSSSSSQQQLRNFSRSRHASERGHLRGPSSYRPKEPFRSHPPSVRMPSSSLSESSPRPSFWERSHLALDRFRFRGRPYRGGSRWSRGRGVGERGGKPGCRPPLGGGAGSGFSSSQSWREPSPPRKSSKSFGRSPSRKQNYSSKNENCVEETFEDLLLKYKQIQLELECINKDEKLALSSKEENVQEDPKTLNFEDQTSTDNVSITKDSSKEVAPEEKTQVKTFQAFELKPLRQKLTLPGDKNRLKKVKDGAKPLSLKSDTTDSSQGLQDKEQNLTRRISTSDILSEKKLGEDEEELSELQLRLLALQSASKKWQQKEQQVMKESKEKLTKTKTVQQKVKTSTKTHSAKKVSTTAKQALRKQQTKAWKKLQQQKEQERQKEEDQRKQAEEEERRKREEEIRKIRDLSNQEEQYNRFMKLVGGKRRSRSKSSDPDLRRSLDKQPTDSGGGIYQYDNYEEVAMDTDSETSSPAPSPVQPPFFSECSLGYFSPAPSLSLPPPPQVSSLPPLSQPYVEGLCVSLEPLPPLPPLPPLPPEDPEQPPKPPFADEEEEEEMLLREELLKSLANKRAFKPEETSSNSDPPSPPVLNNSHPVPRSNLSIVSINTVSQPRIQNPKFHRGPRLPRTVISLPKHKSVVVTLNDSDDSESDGEASKSTNSVFGGLESMIKEARRTAEQASKPKVPPKSEKENDPLRTPEALPEEKKIEYRLLKEEIANREKQRLIKSDQLKTSSSSPANSDVEIDGIGRIAMVTKQVTDAESKLKKHRILLMKDESVLKNLVQQEAKKKESVRNAEAKITKLTEQLQATEKILNVNRMFLKKLQEQIHRVQQRVTIKKALTLKYGEELARAKAVASKEIGKRKLEQDRFGPNKMMRLDSSPVSSPRKHSAELIAMEKRRLQKLEYEYALKIQKLKEARALKAKEQQNISPVVEEEPEFSLPQPSLHDLTQDKLTLDTEENDVDDEILSGSSRERRRSFLESNYFTKPNLKHTDTANKECINKLNKNTVEKPELFLGLKIGELQKLYSKADSLKQLILKTTTGITEKVLHGQEISVDVDFVTAQSKTMEVKPCPFRPYHSPLLVFKSYRFSPYYRTKEKLPLSSVSYSNMIEPDQCFCRFDLTGTCNDDDCQWQHIQDYTLSRKQLFQDILSYNLSLIGCAETSTNEEITASAEKYVEKLFGVNKDRMSMDQMAVLLVSNINESKGHTPPFTTYKDKRKWKPKFWRKPISDNSFSSDEEQSTGPIKYAFQPENQINVPALDTVVTPDDVRYFTNETDDIANLEASVLENPSHVQLWLKLAYKYLNQNEGECSESLDSALNVLARALENNKDNPEIWCHYLRLFSKRGTKDEVQEMCETAVEYAPDYQSFWTFLHLESTFEEKDYVCERMLEFLMGAAKQETSNILSFQLLEALLFRVQLHIFTGRCQSALAILQNALKSANDGIVAEYLKTSDRCLAWLAYIHLIEFNILPSKFYDPSNDNPSRIVNTESFVMPWQAVQDVKTNPDMLLAVFEDAVKACTDESLAVEERIEACLPLYTNMIALHQLLERYEAAMELCKSLLESCPINCQLLEALVALYLQTNQHDKARAVWLTAFEKNPQNAEVFYHMCKFFILQNRGDNLLPFLRKFIASFFKPGFEKYNNLDLFRYLLNIPGPIDIPSRLCKGNFDDDMFNHQVPYLWLIYCLCHPLQSSIKETVEAYEAALGVAMRCDIVQKIWMDYLVFANNRAAGSRNKVQEFKFFTDLVNRCLVTVPARYPIPFSSADYWSNYEFHNRVIFFYLSCVPKTQHSKTLERFCSVMPANSGLALRLLQHEWEESNVQILKLQAKMFTYNIPTCLATWKIAIAAEIVLKGQREVHRLYQRALQKLPLCASLWKDQLLFEASEGGKTDNLRKLVSKCQEIGVSLNELLNLNSNKTESKNH

Drawing on paper PMC5923425, “Structural analysis of human ARS2 as a platform for co-transcriptional RNA sorting” (Nature Communications, 2018), this text covers screen value for 5 variants.

In one test the parent is B1. Description: EGFP pull down, LC–MS/MS (AP–MS, TMT labelled); HEK 293T/17 cells; three independent affinity purifications per bait; read off a plot.
chain 1 K719A, chain 1 K722A, chain 1 K734A: the screen value was ~-3.1.

In a further test the parent is B2. Described as above.
For the variant chain 1 K719A, chain 1 K722A, chain 1 K734A, the screen value is ~-1.7.

In the next test the parent is B3. The test is described as above.
For chain 1 K719A, chain 1 K722A, chain 1 K734A, the screen value is ~-2.7.

Variants of B4 are the subject of another test. The description is as above.
As to chain 1 K719A, chain 1 K722A, chain 1 K734A, the screen value was ~-1.8.

The variants in a further test derive from B5. Described as above.
With chain 1 K719A, chain 1 K722A, chain 1 K734A, the screen value is ~-2.8.
